Experimental data reported in PMC11154964, “The Light Chain Allosterically Enhances the Protease Activity of Murine Urokinase-Type Plasminogen Activator” (Biochemistry, 2024).
Each block holds one molecule with its values, some of them ahead of it. Ends that are not written are not given here.

Legend:
[1] = biological target: protease domain (heavy chain) of murine urokinase-type plasminogen activator (muPA WT, after plasmin cleavage) (mouse (murine)) (UniProt P06869)
[2] = biological target: T1, protease domain (heavy chain) of murine urokinase-type plasminogen activator (muPA WT, after plasmin cleavage) (mouse (murine), UniProt P06869 180-433, C281 (122CT) disulfide-bonded to C149 (1CT) of the light chain); assay: HDX-MS; two-chain muPA (light chain disulfide-bonded to the protease domain; WT 20 μM, F(−2)CTA 8.5 μM, K4CTG 13 μM) compared with No-Light-Chain muPA (10 μM); PBS pH 7.4, 22 °C, deuteration 0, 30, 60, 120, 600 s; settings: both partners purified
T1 construct: Stood in the assay as one of the two chains of muPA WT or of its light-chain mutants; also called serine protease domain
T1 sequence (P06869 180-433): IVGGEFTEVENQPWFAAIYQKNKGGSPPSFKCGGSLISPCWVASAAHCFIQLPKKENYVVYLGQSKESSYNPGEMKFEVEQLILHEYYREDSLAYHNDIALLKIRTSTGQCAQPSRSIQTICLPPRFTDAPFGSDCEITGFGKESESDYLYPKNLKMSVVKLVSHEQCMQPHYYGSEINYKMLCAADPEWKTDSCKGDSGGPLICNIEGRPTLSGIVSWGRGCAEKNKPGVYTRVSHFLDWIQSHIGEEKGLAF

[3] = biological target: T1, protease domain (heavy chain) of murine …; assay: cell-based or functional assay

protease domain (heavy chain) of murine urokinase-type plasminogen activator (muPA WT, after plasmin cleavage) (mouse (murine)), sequence (P06869 180-433): as above

- kcat of the amidolytic activity (chromogenic substrate S2444) of two-chain muPA F(−2CT)A [1]: 12 s^–1
Molecule: light chain of muPA with the mutation F(−2CT)A (from UniProt P06869 153-179) (domain or fragment)

- binding result [2]: binds
B1: disordered light chain of murine urokinase-type plasminogen activator (muPA WT, after plasmin cleavage) (domain or fragment, mouse (murine), UniProt P06869 153-179, looked up)
chain: SLSKKPSSSVDQQGFQCGQKALRPRFK
modifications: not fully specified; also: disulfide to Cys281 of the protease domain chain, disulfide at 17, other end not in the chain
notes: Stood in the assay as one of the two chains of muPA WT (133-413), tethered to m2 by a disulfide bond; The construct has an N-terminal 6xHis-tag and a TEV protease cleavage site; also called disordered linker; light chain of muPA WT

- kcat of the amidolytic activity (chromogenic substrate S2444) of two-chain muPA K4CTG [3]: 22 s^–1
B2: light chain of muPA with the mutation K4CTG (domain or fragment, mouse (murine), UniProt P06869 153-179, looked up)
chain: SLSKKPSSSVDQQGFQCGQGALRPRFK
modifications: not fully specified; also: disulfide to Cys281 of the protease domain chain, disulfide at 17, other end not in the chain
